The text below walks through data of paper PMC12594620, “The Role of the [2Fe‐2S] Cluster of Escherichia coli IscR in Responding to Redox‐Cycling Agents”.

Data set [1] deals with T1, [2Fe-2S]-IscR (wild type, anaerobically isolated) (Escherichia coli K12, UniProt P0AGK8 1-162).
T1 sequence: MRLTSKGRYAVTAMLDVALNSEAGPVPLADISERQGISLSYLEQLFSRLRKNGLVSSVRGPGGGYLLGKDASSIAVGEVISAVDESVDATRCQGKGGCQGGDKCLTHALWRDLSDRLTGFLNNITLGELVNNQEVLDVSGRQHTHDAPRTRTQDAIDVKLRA
Briefly: fluorescence anisotropy; [2Fe-2S]1+ cluster, anaerobic, no PMS; apparent Kd; Anisotropy: 40 mM Tris-Cl pH 7.9, 30 mM KCl, 5% glycerol, anaerobic unless stated, temperature not stated for the binding step; EMSA: 40 mM Tris-Cl pH 7.9, 150. As to conditions: protein: recombinant; chain copies: 2; label: 5' Texas Red on strand 1; blunt. (Fluorescence polarisation rises when a labelled molecule tumbles more slowly, as on binding a larger partner.)

The target of data set [2] is T1, [2Fe-2S]-IscR (wild type, anaerobically …). The data set is described as follows: fluorescence anisotropy; air 15 min, then returned to anaerobic chamber and assayed anaerobically; Anisotropy: 40 mM Tris-Cl pH 7.9, 30 mM KCl, 5% glycerol, anaerobic unless stated, temperature not stated for the binding step; EMSA: 40 mM Tris-Cl pH 7.9, 150. Conditions: protein: recombinant; chain copies: 2; label: 5' Texas Red on strand 1; blunt.

B1: iscRB type 1 site 30 bp (dsDNA)
DNA 1: AAATAGTTGACCATTTTACTCGGGAATGTC
DNA 2: GACATTCCCGAGTAAAATGGTCAACTATTT
With B1, the Kd in data set [1] was determined as 22 nM; in data set [2], 26 nM.
